Numbering of substitutions follows the chain as printed. Names may count otherwise. Values belong to the binder of their own block, whether it stands above or below them.
Assays:
[1] = target: T1, soluble recombinant IL13Rα2 ectodomain (human, UniProt Q14627 27-343); assay: SPR, Biacore X100, 1:1 binding model
T1 construct: extracellular domain
T1 sequence (looked up): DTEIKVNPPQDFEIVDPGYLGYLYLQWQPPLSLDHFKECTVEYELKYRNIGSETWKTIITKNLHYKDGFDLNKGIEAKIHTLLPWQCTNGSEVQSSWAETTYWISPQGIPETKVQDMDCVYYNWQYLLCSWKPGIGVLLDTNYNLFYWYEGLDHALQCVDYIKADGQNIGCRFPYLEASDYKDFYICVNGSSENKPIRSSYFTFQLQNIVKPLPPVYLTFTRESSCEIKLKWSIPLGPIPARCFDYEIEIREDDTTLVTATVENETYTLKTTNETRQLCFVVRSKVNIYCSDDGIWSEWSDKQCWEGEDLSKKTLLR
Procedure: Data obtained by surface plasmon resonance were fitted with a “1:1 binding” model using the Biacore X100 Evaluation Software (V2.0.1). The following parameters were calculated from this model: association rate (kₐ), dissociation rate (kd) and the dissociation constant at equilibrium (KD).

[2] = target: T2, IL13Rα2 on cells (recombinant K562-IL13Rα2 cell line, U251-MG cells, PC3 cells) (human, UniProt Q14627 27-380); assay: flow cytometry cellular binding assay on recombinant K562-IL13Rα2 cells, two-step immunostaining (anti-His-tag-PE), absolute MFI against TM concentration, four-parameter fit
T2 construct: whole, on cells; not repeated for the recombinant cell line; also called Interleukin-13 receptor subunit alpha-2
T2 sequence (looked up): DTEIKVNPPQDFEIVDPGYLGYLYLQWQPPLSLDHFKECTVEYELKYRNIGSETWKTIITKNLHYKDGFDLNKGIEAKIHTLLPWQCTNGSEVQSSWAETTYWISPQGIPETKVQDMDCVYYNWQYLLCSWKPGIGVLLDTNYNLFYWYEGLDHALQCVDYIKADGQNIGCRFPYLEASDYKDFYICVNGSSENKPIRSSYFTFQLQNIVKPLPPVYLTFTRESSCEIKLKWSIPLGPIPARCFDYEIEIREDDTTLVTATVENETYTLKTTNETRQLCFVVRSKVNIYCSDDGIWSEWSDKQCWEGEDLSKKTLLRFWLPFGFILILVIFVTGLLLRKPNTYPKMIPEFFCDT
Procedure: (§1) Cellular binding of IL13-based targeting modules (TM) was tested on recombinant K562-IL13Rα2 cell line (FIG. 2A), recombinant K562-IL13Rα1 cell line (FIG. 2B) and U251-MG cells (FIG. 2C) (derived from a malignant glioblastoma tumor by explant technique). The affinity of TMs was analyzed by FACS in a two-step immunostaining. The TMs were titrated on an AML cell line with recombinant overexpression of IL13Rα2 or IL13Rα1 or U251-MG cells, respectively, and then detected by a mouse anti-His-tag antibody conjugated to phycoerythrin. A dose-response curve was obtained when the geometric mean fluorescence (MFI) was plotted against the TM concentration.
(§2) The data for the cellular binding of IL13-based TMs on the IL13Rα2-expressing AML cell line and U251-MG cells were fitted using a four-parameter model with a variable slope for sigmoidal curves.

[3] = target: T3, IL13Rα1 on recombinant K562-IL13Rα1 cell line (UniProt P78552 22-427); assay: flow cytometry cellular binding assay on recombinant K562-IL13Rα1 cells, two-step immunostaining (anti-His-tag-PE), absolute MFI against TM concentration
T3 construct: whole, on cells
T3 sequence (looked up): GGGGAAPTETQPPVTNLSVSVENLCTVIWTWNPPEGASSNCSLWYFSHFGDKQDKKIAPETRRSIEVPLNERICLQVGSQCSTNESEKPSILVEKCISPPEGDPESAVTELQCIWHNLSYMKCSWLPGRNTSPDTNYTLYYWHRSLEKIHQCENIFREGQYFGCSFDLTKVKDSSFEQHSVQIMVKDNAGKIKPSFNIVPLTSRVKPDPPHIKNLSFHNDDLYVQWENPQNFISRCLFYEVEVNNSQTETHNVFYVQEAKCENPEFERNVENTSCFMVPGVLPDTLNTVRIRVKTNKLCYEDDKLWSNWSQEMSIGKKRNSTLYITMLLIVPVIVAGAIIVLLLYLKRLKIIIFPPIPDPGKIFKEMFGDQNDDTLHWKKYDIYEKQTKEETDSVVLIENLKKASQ
Procedure: as §1

[4] = target: T2, IL13Rα2 on cells (recombinant …); assay: flow cytometry cellular binding assay on U251-MG cells, two-step immunostaining (anti-His-tag-PE), absolute MFI against TM concentration, four-parameter fit
Procedure: as §1, §2

[5] = target: T2, IL13Rα2 on cells (recombinant …); assay: cell-based or functional assay
[6] = target: T2, IL13Rα2 on cells (recombinant …); assay: cell-based or functional assay; remark: listed apart in the source
[7] = target: T1, soluble recombinant IL13Rα2 ectodomain; assay: SPR, Biacore X100, two-state reaction model
Procedure: (§3) Data obtained by surface plasmon resonance were fitted with a “two-state reaction” model using the Biacore X100 Evaluation Software (V2.0.1). The following parameters were calculated from this model: association rate (kₐ), dissociation rate (kd) and the dissociation constant at equilibrium (KD).

[8] = target: T2, IL13Rα2 on cells (recombinant …); assay: flow cytometry, two-step immunostaining, PC3 cells
[9] = target: T1, soluble recombinant IL13Rα2 ectodomain; assay: SPR, Biacore X100, two-state reaction model, Ka1
Procedure: as §3

[10] = target: T1, soluble recombinant IL13Rα2 ectodomain; assay: SPR, Biacore X100, two-state reaction model, Kd1
Procedure: as §3

[11] = target: T2, IL13Rα2 on cells (recombinant …); assay: flow cytometry cellular binding, U251-MG cells, mean
Procedure: (§4) The data were fitted using a four-parameter model with a variable slope for sigmoidal curves. The EC50 value obtained from this model can be interpreted as a representative value of the TM affinity for the cells overexpressing the target receptor.
The mean values were calculated from the results obtained from two independent experiments with three technical replicates each (see Tab. 1).

[12] = target: T2, IL13Rα2 on cells (recombinant …); assay: flow cytometry, two-step immunostaining, K562-IL13Rα2 cells
Procedure: as §1, §4

[13] = target: T3, IL13Rα1 on recombinant K562-IL13Rα1 …; assay: flow cytometry cellular binding assay on recombinant K562-IL13Rα1 cells, two-step immunostaining, MFI against TM concentration
Procedure: as §1, §4

Kd [1]: 30 nM
koff [1]: 0.00049 s⁻¹
kon [1]: 26000 M⁻¹ s⁻¹
EC50 [2]: 26 nM
B1: TM-IL13-E11Y-G30Y (ligand, not shown: small tags and cut ends)
chain (part 1 of 2): GPVPPSTALRYLIEELVNITQNQKAPLCNYSMVWSINLTAGMYCAALESLINVSGCSAIEKTQRMLSGFCPHKVSAGQFSSLHVRDTKIEVAQFVKDLLLHLKKLFREGRFN
chain (part 2 of 2): KPLPEVTDEYHHHHHHHH

Kd [1]: 21 nM
koff [1]: 0.00073 s⁻¹
kon [1]: 35000 M⁻¹ s⁻¹
binding result [3]: no binding (tested: about 5x10^-6 M)
EC50 [4]: 1.08 nM
EC50 [2]: 14.1 nM
B2: TM-IL13-E11Y-M32A (ligand, not shown: small tags and cut ends)
chain (part 1 of 2): B1 chain (part 1 of 2) with Y30G, M32A
chain (part 2 of 2): KPLPEVTDEYHHHHHHHH

EC50 of lysis of K562-IL13Rα2 cells by switchable CAR T cells [5]: 0.0068 nM
EC50 of lysis of PC3 cells by switchable CAR T cells [5]: 0.048 nM
EC50 (M), mean, lysis of U251-MG cells by UniCAR T cells [6]: 2.8e-11 M
Kd [7]: 1.39 nM
EC50 [8]: 1 nM
kon [9]: 871000 M⁻¹ s⁻¹
koff [10]: 0.0024 s⁻¹
EC50 [11]: 2.5 nM
EC50 [12]: 1.68 nM
binding result [13]: no binding (tested: 1x10^-6 M)
B3: TM-mu33A1-scFv (scFv)
scFv: EFQVQLQQPGAELVKPGASVKLSCKASGYTFTSHWIHWVKERPGRGLEWIGRIEPNSGGTLYNEKFKTKATLTVDKPSSTAYMQINSLTSEDFAVYYCARWREFDFFDYWGQGTTLTVSSGGGGSGGGGSGGGGSDIVLTQSPATLSVTPGDSVSLSCRASQSISNNLHWYQQKSHESPRLLIKYASQSISGIPSRFSGSGSGTDFTLSISSVETEDFGMYFCQQSNRWPYTFGGGTKLEIKAAAKPLPEVTDEYARGGPGGGGSHHHHHHHH
notes: also called TM based on the parental murine clone 33A1; mu33A1-based TM
